Assay [1] concerns the target HLA-A*0201 (human).
For assay [2], the target named is HLA-B*0702 (Human). As to the kind of experiment: competition with 125I-labelled standard peptide for purified HLA, gel filtration.
In assay [3] the target is HLA-B*5101 (Human). Described as above.
The target in assay [4] is HLA-B*5401 (Human). The assay is described as above.
Assay [5] has as its target HLA-A*0301 (human). In words: competition with 125I-labeled standard peptide on purified HLA, gel filtration. (In gel filtration, larger molecules generally elute earlier.)
The target in assay [6] is HLA-A*1101 (human). The assay is described as above.
The target of assay [7] is HLA-A*0301 (human).
Assay [8] deals with HLA-A*0201 (Human). As to the kind of experiment: competition with 125I-labelled probe peptide for purified HLA, gel filtration.
Assay [9] addresses HLA-A*0301 (human). In words: competition with 125I-labelled standard peptide on purified HLA, gel filtration.
Assay [10] deals with HLA-A*1101 (human).
The target of assay [11] is HLA-A*0301 (human). In words: competition with 125I-labelled standard peptide on purified HLA, gel filtration. The source holds these as a separate data set.
The target in assay [12] is HLA-A*1101 (human). The source holds these as a separate data set.
Assay [13] addresses T1, HLA-DR6w19 (DRB1*1302) (human).
T1 chain 1: not shown
T1 chain 2: not shown
In words: purified HLA-DR, inhibition of 125I standard peptide, gel filtration.

Assay [14] has as its target T2, HLA-DR5w11 (DRB1*1101) (human).
T2 chain 1: not shown
T2 chain 2: not shown
The description is as above.

Assay [15] addresses T3, HLA-DR9 (DRB1*0901) (human).
T3 chain 1: not shown
T3 chain 2: not shown
The assay is described as above.

The target in assay [16] is T4, HLA-DR8w2 (DRB1*0802) (human).
T4 chain 1: not shown
T4 chain 2: not shown
The assay is described as above.

The target of assay [17] is HLA-A*0301 (human). The source holds these as a separate data set.
Assay [18] has as its target HLA-B*5301 (Human). As to the kind of experiment: competition with 125I-labelled standard peptide for purified HLA, gel filtration.
Assay [19] concerns the target HLA-B*3501 (Human). The description is as above.
In assay [20] the target is T5, HLA-DR7 (DRB1*0701) (human).
T5 chain 1: not shown
T5 chain 2: not shown

For assay [21] the target is unchanged. In words: purified HLA-DR, inhibition of 125I standard peptide, gel filtration.
[22] abbreviates: remark: other sources report otherwise.

Read-outs that look alike come from different tables or passages of the source.

Take TLHGPTPLL (modifications not checked) [HCV peptide … (HCV polyprotein position 1622)]: the binding affinity ratio (IC50 of standard peptide / IC50 of test peptide) in assay [1] was found to be 0.007.
Take LPVCQDHLEF (modifications not checked): the binding affinity ratio (IC50 standard/IC50 test) in assay [2] (setting [22]) came to 0.0001; in [3] (setting [22]), 0.0002; in assay [4] (setting [22]) it was 0.0003.
For WLLSPRGSR (modifications not checked) [HCV peptide … (HCV polyprotein position 96)], the binding affinity ratio (IC50 of standard peptide / IC50 of test peptide) in assay [5] stood at 0.0008; in assay [6], 0.0005.
Take TSMLTDPSH (modifications not checked) [… (HCV polyprotein position 2177)]: in assay [7], the binding affinity ratio (IC50 of standard peptide / IC50 of test peptide) stood at 0.0003.
In the case of LVDILAGYGA (modifications not checked) [HCV peptide … (polyprotein position 1853)], the binding affinity ratio (IC50 of standard peptide / IC50 of test peptide) in assay [8] was -0.0001.
On to PTDPRRRSR (modifications not checked) [HCV peptide … (polyprotein position 109)], for which the values for the binding affinity ratio (IC50 of standard peptide / IC50 of test peptide) in [9] and in assay [10] were 0.0008 and 0.0005, respectively.
IAFASRGNH (modifications not checked) [HCV peptide … (polyprotein position 1925)]: the binding affinity ratio (IC50 of standard peptide / IC50 of test peptide) in assay [11] stood at 0.0003.
As to TGLTHIDAH (modifications not checked) [… (HCV polyprotein position 1568, 9-mer)], the binding affinity ratio (IC50 of standard peptide / IC50 of test peptide) in assay [12] came out at 0.0001.
With TGLTHIDAH (modifications not checked) [… (HCV polyprotein position 1568)], the binding affinity ratio (IC50 of standard peptide / IC50 of test peptide) in [7] was 0.0003.
Take FTGLTHIDAHFLSQT (modifications not checked): the relative binding (IC50 of standard peptide / IC50 of test peptide) in assay [13] was 0.0002; in [14], 0.0083; in assay [15], 0.0056; in assay [16] it was 0.05.
Consider PVVVGTTDR (modifications not checked) [HCV peptide … (polyprotein position 516)], for which the binding affinity ratio (IC50 of standard peptide / IC50 of test peptide) in assay [17] was found to be 0.0008; in assay [10] it was 0.0005.
For LIVFPDLGV (modifications not checked), the binding affinity ratio (IC50 of standard peptide / IC50 of test peptide) in [8] worked out at 0.0002.
Take TLPALSTGL (modifications not checked) [HCV peptide … (HCV polyprotein position 686)]: the binding affinity ratio (IC50 of standard peptide / IC50 of test peptide) in assay [1] was 0.0003.
For LVNLLPAIL (modifications not checked) [HCV peptide … (polyprotein position 1884)], the binding affinity ratio (IC50 of standard peptide / IC50 of test peptide) in [8] was found to be 0.0002.
QPGYPWPLY (modifications not checked): the binding affinity ratio (IC50 standard/IC50 test) was determined as 0.0001 in [2], 0.0002 in [3], 0.0002 in assay [4] and 0.0001 in assay [18].
Turning to NPSVAATLGF (modifications not checked), the binding affinity ratio (IC50 standard/IC50 test) was determined as 0.0001 in assay [2]; 0.0002 in assay [3]; 0.0001 in assay [19]; 0.0003 in assay [4]; 0.0001 in assay [18].
For the molecule TSERSQPRGR (modifications not checked) [HCV peptide … (HCV polyprotein position 52)], the binding affinity ratio (IC50 of standard peptide / IC50 of test peptide) in [5] was 0.0003; in [6], 0.0001.
On to TSERSQPRGR (modifications not checked) [… (HCV polyprotein position 52)], for which the binding affinity ratio (IC50 of standard peptide / IC50 of test peptide) in assay [7] was found to be 0.0003.
On to TSERSQPRGR (modifications not checked) [… (HCV polyprotein position 52, 10-mer)], for which the binding affinity ratio (IC50 of standard peptide / IC50 of test peptide) in [12] was 0.0001.
With LLPAILSPGA (modifications not checked) [HCV peptide … (polyprotein position 1887)], the binding affinity ratio (IC50 of standard peptide / IC50 of test peptide) in [8] stood at 0.0061.
With LVAYQATVCA (modifications not checked) [HCV peptide … (polyprotein position 1591)], the binding affinity ratio (IC50 of standard peptide / IC50 of test peptide) in assay [8] came out at 0.0002.
With LIVFPDLGVR (modifications not checked), in [17], the binding affinity ratio (IC50 of standard peptide / IC50 of test peptide) worked out at 0.0003.
TSMLTDPSH (modifications not checked) [… (HCV polyprotein position 2177, 9-mer)]: the binding affinity ratio (IC50 of standard peptide / IC50 of test peptide) in [12] was 0.0001.
As for SASQLSAPSLK (modifications not checked) [HCV peptide … (polyprotein position 2207)], the binding affinity ratio (IC50 of standard peptide / IC50 of test peptide) in assay [17] is 0.0003; in assay [10], 0.0044.
Take RQEMGGNITRVESEN (modifications not checked) [HCV NS5 2243 peptide 1283.49]: in assay [20], the binding affinity ratio (relative to standard peptide) is 0.0002.
For the molecule VYCFTPSPVVVGTTD (modifications not checked), the relative binding (IC50 of standard peptide / IC50 of test peptide) in [13] was 0.0001; in [14] it was 0.0056; in [15], 0.18; in assay [21] it was 0.074.
Take VAYQATVCA (modifications not checked) [HCV peptide … (HCV polyprotein position 1592)]: the binding affinity ratio (IC50 of standard peptide / IC50 of test peptide) in assay [1] is 0.0005.
On to VAYQATVCAR (modifications not checked) [… (HCV polyprotein position 1592)], for which the binding affinity ratio (IC50 of standard peptide / IC50 of test peptide) in [7] was found to be 0.0005.
As for PPPSWDQMW (modifications not checked), the binding affinity ratio (IC50 standard/IC50 test) in [2] stood at 0.0001; in [3], 0.0001; in assay [19] it was 0.0002; in assay [4], 0.0002; in assay [18], 0.0001.
For the molecule VAYYRGLDV (modifications not checked) [HCV peptide … (HCV polyprotein position 1420)], the binding affinity ratio (IC50 of standard peptide / IC50 of test peptide) in [1] stood at 0.0001.
Regarding YVPESDAAAR (modifications not checked) [HCV peptide … (HCV polyprotein position 1939)], the binding affinity ratio (IC50 of standard peptide / IC50 of test peptide) worked out at 0.0003 in assay [5] and 0.0001 in assay [6].
As to YLLPRRGPR (modifications not checked) [HCV peptide … (HCV polyprotein position 35)], the binding affinity ratio (IC50 of standard peptide / IC50 of test peptide) is 0.0054 in assay [5] (setting [22]) and 0.0005 in assay [6] (setting [22]).
Consider TTIMAKNEVFCVQPE (modifications not checked) [HCV NS5 2589 peptide 1283.51], for which, in assay [20] (setting [22]), the binding affinity ratio (relative to standard peptide) was 0.0025.
Take LELITSCSSNVSVAH (modifications not checked): the relative binding (IC50 of standard peptide / IC50 of test peptide) was 0.051 in assay [13], 0.0008 in assay [14], 0.033 in assay [15] and 0.0003 in assay [16].
In the case of VAYQATVCAR (modifications not checked) [… (HCV polyprotein position 1592, 10-mer)], in assay [12], the binding affinity ratio (IC50 of standard peptide / IC50 of test peptide) worked out at 0.0038.
Take QPEYDLELI (modifications not checked): the binding affinity ratio (IC50 standard/IC50 test) stood at 0.0001 in assay [2]; 0.0002 in assay [3]; 0.0002 in [19]; 0.0002 in [4]; 0.0001 in [18].

These data come from patent publication US20090304746A1.
